The values below come from patent US20120238494A1 (published 2012).

Numbered stars: 1 amine (or outer) side, 2 acyl side, 3 side chain; on linkers, the order of the positions; unused ones are H or OH. Square brackets hold non-standard residues; d marks the D form. dSer(tBu) = CC(C)(C)OC[C@@H](N[*:1])C(=O)[*:2]; pGlu = O=C1CC[C@@H](C(=O)O)N1; azaGly = NNC(=O)O

For experiment [1], the target named is T1, human GnRH receptor (human, UniProt P30968 1-328).
T1 construct: whole, on cells; Endogenous receptor; also called LHRH receptor; human pituitary GnRH receptor
T1 sequence (looked up): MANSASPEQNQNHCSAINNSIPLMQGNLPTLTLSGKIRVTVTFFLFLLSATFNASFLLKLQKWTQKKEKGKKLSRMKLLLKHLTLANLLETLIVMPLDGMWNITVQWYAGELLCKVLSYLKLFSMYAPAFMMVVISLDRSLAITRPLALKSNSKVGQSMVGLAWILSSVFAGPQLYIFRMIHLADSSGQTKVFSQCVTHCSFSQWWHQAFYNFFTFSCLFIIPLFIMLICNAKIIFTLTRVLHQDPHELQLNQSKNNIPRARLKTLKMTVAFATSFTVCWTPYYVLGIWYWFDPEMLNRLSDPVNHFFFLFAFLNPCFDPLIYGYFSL
As to the kind of experiment: cell-based or functional assay.

Experiment [2] addresses T2, rat GnRH receptor (rat pituitaries) (rat, UniProt P30969 1-327).
T2 construct: whole, on cells; Endogenous receptor of rat pituitary tissue, used as the control preparation
T2 sequence (looked up): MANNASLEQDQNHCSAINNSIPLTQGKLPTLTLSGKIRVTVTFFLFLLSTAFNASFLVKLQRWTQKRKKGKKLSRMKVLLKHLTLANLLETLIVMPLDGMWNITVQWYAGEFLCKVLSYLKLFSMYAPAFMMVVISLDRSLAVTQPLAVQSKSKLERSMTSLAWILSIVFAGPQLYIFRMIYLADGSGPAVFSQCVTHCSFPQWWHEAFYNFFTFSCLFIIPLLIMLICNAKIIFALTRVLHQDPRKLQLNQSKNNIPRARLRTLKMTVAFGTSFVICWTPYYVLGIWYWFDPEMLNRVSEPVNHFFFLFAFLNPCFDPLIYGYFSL
In words: radioligand binding, displacement curves, rat pituitaries (control).

Experiment [3] concerns the target T1, human GnRH receptor. In words: radioligand binding, displacement curves, BLM human melanoma cell membranes.
Experiment [4] addresses T1, human GnRH receptor. In words: radioligand binding, displacement curves, ME15392 human melanoma cell membranes.

With “Antide, a LHRH antagonist (Sigma Chemical Co., No. A8802) (peptide)”, in experiment [1], the inhibition of MV3 melanoma cell proliferation at 10^-4 M is 15%, the inhibition of MV3 melanoma cell proliferation at 10^-5 M came to 35% and the stimulation of MV3 melanoma cell growth at 10^-6 M was 40%.
For GnRH antagonist Cetrorelix (peptide), in experiment [1], the decrease of U-87MG cell proliferation at 10^-6 M is 28% and the inhibition of U-87MG cell proliferation at 10^-5 M came out at 30%.
With “Triptorelin, an LHRH agonist (Sigma Chemical Co., No. L9761) (peptide)”, the inhibition of MV3 melanoma cell proliferation at 10^-4 M, 10^-5 M and 10^-6 M, from day 4 on in experiment [1] is 15%.

B1: GnRH agonist LHRH-A, ZOLADEX [D-Ser(tBu)^6Aza-Gly-LHRH] (peptide)
peptide: [pGlu]HWSY[dSer(tBu)]LRP[azaGly]-NH2
modifications: also: 125I-labelled tracer form, position not given here
notes: the unlabelled form was used in the cell assays; also called Goserelin
Usually Kd stands for the concentration at which binding is half-saturated. In the case of B1, the Kd lay within 1.5 to 2 nM in experiment [2], 0.7 to 1.1 nM in experiment [3] and 0.1 to 0.6 nM in experiment [4].
